# Measurements published in patent publication WO2019096294A1 (dated 2019).
# How the values were obtained:
# [1] = target: T1, His-tagged human prothrombin (human, UniProt P00734 44-622, limits assumed); experiment: binding ELISA; His-tagged human prothrombin coated on plate
# T1 construct: not shown: His tag
# [2] = target: T2, His-tagged human thrombin (human, UniProt P00734 328-622); experiment: Biacore SPR; ratio of the affinities for thrombin and prothrombin
# [3] = target: T2, His-tagged human thrombin; experiment: binding ELISA; biotinylated His-tagged human thrombin on streptavidin plate
binder,measurement,setting,value
"h1601-008 (antibody, V domains shown, Humanized parent antibody from WO2017133673A1; Only VH and VL are tied to it; it was detected with an anti-human secondary antibody and captured with an anti-human capture kit) VH: EVQLVESGGGLVQPGGSLRLSCAASGFTFSDYYMAWVRQAPGKGLEWVSNINSDGSSTYYLDSLKSRFTISRDNSKNTLYLQMNSLKAEDTAVYYCARDHYHGNSYVFDYWGQGTTVTVSS VL: DIQMTQSPSSLSASVGDRVTITCKASEDIYNRLAWYQQKPGKAPRLIISGATSLETGVPSRFSGSGSGKDYTLTISSLQPEDFATYYCQQYWSTPWTFGGGTKVEIK",EC50,[1],0.151 µg/mL
same,selective activity (affinity for thrombin relative to affinity for prothrombin),[2],11.2
same,EC50,[3],0.375 µg/mL
